The source of these data is publication PMC8100106, “Selection of a picomolar antibody that targets CXCR2-mediated neutrophil activation and alleviates EAE symptoms” (Nature Communications, 2021).

For test [1], the target named is T1, pepN48, first 48 residues of the extracellular N-terminus of hCXCR2 (Homo sapiens, biotin on the N-terminus).
T1 construct: human CXC chemokine receptor 2 (CXCR2), first 48 residues; also called CXCR2 N-terminal peptide; source: synthetic peptide (Chinese Peptide)
T1 chain: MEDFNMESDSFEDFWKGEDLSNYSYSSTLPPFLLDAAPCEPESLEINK
Briefly: SPR; biotinylated pepN48 loaded on streptavidin chip (Series S Sensor Chip SA), antibody flowed over, Biacore T200, HBS-EP+ buffer pH 7.4. The note with it: both partners purified.

Test [2] concerns the target T2, human CXCR2 (hCXCR2)-mCherry fusion protein on U2OS cells (human, UniProt P25025).
T2 construct: human CXC chemokine receptor 2 (CXCR2); Also used here as the target of the functional rows, whose cells (Tango CXCR2-bla U2OS; CHO with hCXCR2 and Gα16; U2OS overexpressing hCXCR2) carry other hCXCR2 constructs; also called CXC chemokine receptor 2; source: U2OS, transiently overexpressed, on cells
Briefly: immunostaining of cells or tissue; U2OS cells overexpressing receptor-mCherry, fixed with 4% paraformaldehyde; 2 μg mL^−1 antibody at 4 °C overnight; Alexa Fluor 488 anti-human IgG; confocal microscopy. Conditions: one partner purified.

The target of test [3] is T3, pepN48, peptide of the first 48 residues of the extracellular N-terminus of hCXCR2 (Homo sapiens, biotin labeled on its N-terminus).
T3 construct: human CXC chemokine receptor 2 (CXCR2), first 48 residues; a blank before the last K in the print was removed; also called CXCR2 N-terminal peptide; source: synthetic peptide (Chinese Peptide, Hangzhou)
T3 chain: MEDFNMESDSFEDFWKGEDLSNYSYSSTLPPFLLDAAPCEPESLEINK
Briefly: SPR; biotinylated pepN48 loaded on a streptavidin Series S Sensor Chip SA; antibody flowed; Biacore T200; HBS-EP+ buffer pH 7.4. The note with it: both partners purified.

The target of test [4] is T4, macaque CXCR2 (mcCXCR2-mCherry) on U2OS cells (Macaca mulatta (macaque species not …, UniProt A0A5F7ZQV3)).
T4 construct: macaque CXCR2; also called macaque monkey CXCR2; source: U2OS, transiently overexpressed, on cells
T4 sequence (Q28519 whole entry): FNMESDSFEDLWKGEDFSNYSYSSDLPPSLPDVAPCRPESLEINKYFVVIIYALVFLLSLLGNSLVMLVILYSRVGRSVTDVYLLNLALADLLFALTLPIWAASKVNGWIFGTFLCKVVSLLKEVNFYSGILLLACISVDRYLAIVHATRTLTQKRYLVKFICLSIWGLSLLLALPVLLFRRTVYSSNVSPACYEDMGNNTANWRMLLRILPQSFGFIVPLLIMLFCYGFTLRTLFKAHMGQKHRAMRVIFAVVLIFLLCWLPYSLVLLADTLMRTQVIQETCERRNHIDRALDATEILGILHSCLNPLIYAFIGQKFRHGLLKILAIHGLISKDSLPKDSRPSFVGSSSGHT
Briefly: flow cytometry on cells; U2OS cells transiently overexpressing receptor-mCherry; 2 μg mL^−1 antibody in FACS buffer (0.5% BSA in PBS pH 7.4, 2 mM EDTA), 4 °C, 15 min; Alexa Fluor 488 anti-human IgG. Conditions: one partner purified.

For test [5], the target named is T2, human CXCR2 (hCXCR2)-mCherry fusion …. Briefly: cell-based or functional assay.
For test [6] the target is unchanged. Briefly: flow cytometry on cells; cellular supernatants with scFv-Fc on U2OS cells with membrane-bound hCXCR2-mCherry. The note with it: partners not purified.
The target of test [7] is T5, pepN9-19, 9-19 amino acid peptide of hCXCR2 (human).
T5 construct: human CXCR2 residues 9-19; source: synthetic peptide (Sangon Biotech) for crystallography
T5 chain: DSFEDFWKGED
Briefly: crystal structure; Fab mixed with pepN9-19 at a molar ratio of 1:3; hanging drop vapor diffusion, 18 °C. Conditions: both partners purified.

B1: abN48-IgG1 (antibody, V domains shown)
VH: QVQLVQSGAEVKKPGSSVKVSCKASGGTLSSYAISWVRQAPGQGPEWMGWINPNSGGTNYAQKFQGRVTMTRDTSISTAYMELSRLRPDDTAVYYCASGYCSSTSCYDYWGQGTLVTVSS
VL: QAVLTQPSSLSASPGASVSLTCTLRSGINVGAYRIYWYQQKPGSPPQFLLRYKSDSDKQQGSGVPSRFSGSRDASANAGILLISGLRSEDEADYYCAIWHSSAWVFGGGTQLTVL
notes: VH of abN48 (from the scFv H8); complete constant domains of the IgG1 heavy chain; VL of abN48 on a complete light chain constant domain (lambda type is said of abN48-2-IgG1); IgG1; made from the scFv abN48 (H8); source: HEK293F, co-transfected heavy and light chain plasmids, purified (Protein A)
In test [1], B1 showed an off-rate (koff) of 0.00035 s⁻¹ and a kon of 350000 M⁻¹ s⁻¹.

B2: abN48-IgG1 (antibody, V domains shown)
VH: QVQLVQSGAEVKKPGSSVKVSCKASGGTLSSYAISWVRQAPGQGPEWMGWINPNSGGTNYAQKFQGRVTMTRDTSISTAYMELSRLRPDDTAVYYCASGYCSSTSCYDYWGQGTLVTVSS
VL: QAVLTQPSSLSASPGASVSLTCTLRSGINVGAYRIYWYQQKPGSPPQFLLRYKSDSDKQQGSGVPSRFSGSRDASANAGILLISGLRSEDEADYYCAIWHSSAWVFGGGTQLTVL
notes: VH of abN48; complete constant domains of human IgG1 heavy chain; whole light chain of abN48 (VL and CL); Full-length IgG1; source: HEK293F, co-transfected heavy and light chain plasmids, purified (HiTrap Protein A)
For B2, the binding result in test [2] and in test [4] was “binds” in each case. The affinity in test [3], expressed as Kd, was 0.78 nM.

B3: abN48-2-IgG1 (antibody, V domains shown)
VH: QVQLVQSGAEVKKPGSSVKVSCKASGGTLSSYAISWVRQAPGQGPEWMGWINPNSGGTNYAQKFQGRVTMTRDTSISTAYMELSRLRPDDTAVYYCASGYCSRTRCYDYWGQGTLVTVSS
VL: QAVLTQPSSLSASPGASVSLTCTLRSGINVGAYRIYWYQQKPGSPPQFLLRYKSDSDKQQGSGVPSRFSGSRDASANAGILLISGLRSEDEADYYCAIWHSSAWVFGGGTQLTVL
notes: VH as the heavy chain of Dm1 with two changes in H-CDR3 (Kabat numbering); complete constant domains of the IgG1 heavy chain; as the light chain of Dm1 (lambda type); IgG1, lambda; also called H8-2
In test [1], B3 had a koff of 1.7e-05 s⁻¹ and an on-rate constant (kon) of 940000 M⁻¹ s⁻¹.

B4: abN48-2-IgG1 (antibody, V domains shown)
VH: QVQLVQSGAEVKKPGSSVKVSCKASGGTLSSYAISWVRQAPGQGPEWMGWINPNSGGTNYAQKFQGRVTMTRDTSISTAYMELSRLRPDDTAVYYCASGYCSRTRCYDYWGQGTLVTVSS
VL: QAVLTQPSSLSASPGASVSLTCTLRSGINVGAYRIYWYQQKPGSPPQFLLRYKSDSDKQQGSGVPSRFSGSRDASANAGILLISGLRSEDEADYYCAIWHSSAWVFGGGTQLTVL
notes: VH of abN48-2; equals the VH of m2 (PDB 6KVF) with Ser99 to Arg99 and Ser100A to Arg100A in H-CDR3 (Kabat numbering); complete constant domains of human IgG1 heavy chain; whole lambda light chain; as the light chain of m2; Full-length IgG1, lambda type; also called ab48-2-IgG1; AbN4-2-IgG1; source: HEK293T (results) or HEK293F (methods), transfected, purified (HiTrap Protein A)
On to B4, for which the “partial agonist effect on Ca^2+ influx at high concentration (10–1000 nM), FLIPR, apparent EC50” value in test [5] is 310 nM. The molecule further returned a dissociation constant Kd in test [3] of 0.0072 nM. The binding result in test [4] was “binds”.

B5: H8 (abN48) scFv antibody (scFv, V domains shown)
VH: QVQLVQSGAEVKKPGSSVKVSCKASGGTLSSYAISWVRQAPGQGPEWMGWINPNSGGTNYAQKFQGRVTMTRDTSISTAYMELSRLRPDDTAVYYCASGYCSSTSCYDYWGQGTLVTVSS
VL: QAVLTQPSSLSASPGASVSLTCTLRSGINVGAYRIYWYQQKPGSPPQFLLRYKSDSDKQQGSGVPSRFSGSRDASANAGILLISGLRSEDEADYYCAIWHSSAWVFGGGTQLTVL
notes: VH and VL as in the abN48 Fab of PDB 6KVF; Expressed as scFv-Fc with the entire Fc domain of human IgG1 (pFuse, InvivoGen pfuse-hg1fc2); also called scFv-Fc; source: HEK293F, transfected (pFuse vector); in cellular supernatant, and purified (HiTrap Protein A)
B5: in test [6], the binding result is given as “binds”. The molecule also gave a Kd in test [3] of 2.6 nM.

B6: abN48 Fab (Fab, V domains shown)
VH: QVQLVQSGAEVKKPGSSVKVSCKASGGTLSSYAISWVRQAPGQGPEWMGWINPNSGGTNYAQKFQGRVTMTRDTSISTAYMELSRLRPDDTAVYYCASGYCSSTSCYDYWGQGTLVTVSS
VL: QAVLTQPSSLSASPGASVSLTCTLRSGINVGAYRIYWYQQKPGSPPQFLLRYKSDSDKQQGSGVPSRFSGSRDASANAGILLISGLRSEDEADYYCAIWHSSAWVFGGGTQLTVL
notes: Fab heavy chain of abN48; light chain of abN48; as the light chain of m2; source: Fab made following a similar protocol as for abN48-2 Fab (papain cleavage of the IgG1, purified)
Turning to B6, the binding result in test [7] is given as “binds”.

B7: abN48-2 Fab (Fab, V domains shown)
VH: QVQLVQSGAEVKKPGSSVKVSCKASGGTLSSYAISWVRQAPGQGPEWMGWINPNSGGTNYAQKFQGRVTMTRDTSISTAYMELSRLRPDDTAVYYCASGYCSRTRCYDYWGQGTLVTVSS
VL: QAVLTQPSSLSASPGASVSLTCTLRSGINVGAYRIYWYQQKPGSPPQFLLRYKSDSDKQQGSGVPSRFSGSRDASANAGILLISGLRSEDEADYYCAIWHSSAWVFGGGTQLTVL
notes: Fab heavy chain of abN48-2; VH equals that of m2 (PDB 6KVF) with Ser99 to Arg99 and Ser100A to Arg100A (Kabat numbering); lambda light chain; as the light chain of m3; source: papain cleavage of abN48-2-IgG1, purified (HiTrap lambda HP, Superdex200 increase)
As for B7, the binding result in test [7] is “binds”.
